Data from the Human Domainome abundance scans (Beltran et al. 2025).
± gives the uncertainty stated by the source.

Assay: abundance fitness (aPCA) (normalised: wild type 0, dead -1); higher = more abundant; growth selection in yeast, the domain comes from the species named
Conditions: Homo sapiens

NEDD4-like E3 ubiquitin-protein ligase WWP2 D492Q, O00308
abundance fitness: -0.043 ± 0.088

NEDD4-like E3 ubiquitin-protein ligase WWP2 D492R, O00308
abundance fitness: -0.223 ± 0.051

NEDD4-like E3 ubiquitin-protein ligase WWP2 D492S, O00308
abundance fitness: -0.071 ± 0.053

NEDD4-like E3 ubiquitin-protein ligase WWP2 D492T, O00308
abundance fitness: -0.085 ± 0.073

NEDD4-like E3 ubiquitin-protein ligase WWP2 D492V, O00308
abundance fitness: -0.143 ± 0.049

NEDD4-like E3 ubiquitin-protein ligase WWP2 D492W, O00308
abundance fitness: -0.319 ± 0.033

NEDD4-like E3 ubiquitin-protein ligase WWP2 D492Y, O00308
abundance fitness: -0.189 ± 0.033

NEDD4-like E3 ubiquitin-protein ligase WWP2 E443A, O00308
abundance fitness: -0.065 ± 0.032

NEDD4-like E3 ubiquitin-protein ligase WWP2 E443C, O00308
abundance fitness: 0.004 ± 0.076

NEDD4-like E3 ubiquitin-protein ligase WWP2 E443D, O00308
abundance fitness: -0.06 ± 0.075

NEDD4-like E3 ubiquitin-protein ligase WWP2 E443F, O00308
abundance fitness: -0.287 ± 0.088

NEDD4-like E3 ubiquitin-protein ligase WWP2 E443G, O00308
abundance fitness: -0.091 ± 0.038

NEDD4-like E3 ubiquitin-protein ligase WWP2 E443H, O00308
abundance fitness: -0.082 ± 0.044

NEDD4-like E3 ubiquitin-protein ligase WWP2 E443I, O00308
abundance fitness: -0.093 ± 0.073

NEDD4-like E3 ubiquitin-protein ligase WWP2 E443K, O00308
abundance fitness: -0.062 ± 0.073

NEDD4-like E3 ubiquitin-protein ligase WWP2 E443L, O00308
abundance fitness: -0.183 ± 0.055

NEDD4-like E3 ubiquitin-protein ligase WWP2 E443M, O00308
abundance fitness: -0.14 ± 0.055

NEDD4-like E3 ubiquitin-protein ligase WWP2 E443N, O00308
abundance fitness: -0.019 ± 0.08

NEDD4-like E3 ubiquitin-protein ligase WWP2 E443P, O00308
abundance fitness: -0.065 ± 0.064

NEDD4-like E3 ubiquitin-protein ligase WWP2 E443Q, O00308
abundance fitness: -0.205 ± 0.076

NEDD4-like E3 ubiquitin-protein ligase WWP2 E443R, O00308
abundance fitness: -0.174 ± 0.042

NEDD4-like E3 ubiquitin-protein ligase WWP2 E443T, O00308
abundance fitness: -0.248 ± 0.085

NEDD4-like E3 ubiquitin-protein ligase WWP2 E443V, O00308
abundance fitness: -0.087 ± 0.036

NEDD4-like E3 ubiquitin-protein ligase WWP2 E443W, O00308
abundance fitness: -0.185 ± 0.039

NEDD4-like E3 ubiquitin-protein ligase WWP2 E443Y, O00308
abundance fitness: 0.006 ± 0.058

NEDD4-like E3 ubiquitin-protein ligase WWP2 E451A, O00308
abundance fitness: -0.153 ± 0.056

NEDD4-like E3 ubiquitin-protein ligase WWP2 E451C, O00308
abundance fitness: -0.227 ± 0.063

NEDD4-like E3 ubiquitin-protein ligase WWP2 E451F, O00308
abundance fitness: -0.572 ± 0.083

NEDD4-like E3 ubiquitin-protein ligase WWP2 E451G, O00308
abundance fitness: -0.287 ± 0.037

NEDD4-like E3 ubiquitin-protein ligase WWP2 E451H, O00308
abundance fitness: -0.54 ± 0.089

NEDD4-like E3 ubiquitin-protein ligase WWP2 E451I, O00308
abundance fitness: -0.503 ± 0.091

NEDD4-like E3 ubiquitin-protein ligase WWP2 E451K, O00308
abundance fitness: -0.472 ± 0.076

NEDD4-like E3 ubiquitin-protein ligase WWP2 E451L, O00308
abundance fitness: -0.415 ± 0.053

NEDD4-like E3 ubiquitin-protein ligase WWP2 E451M, O00308
abundance fitness: -0.122 ± 0.056

NEDD4-like E3 ubiquitin-protein ligase WWP2 E451N, O00308
abundance fitness: -0.342 ± 0.065

NEDD4-like E3 ubiquitin-protein ligase WWP2 E451P, O00308
abundance fitness: -1.34 ± 0.3

NEDD4-like E3 ubiquitin-protein ligase WWP2 E451Q, O00308
abundance fitness: 0.066 ± 0.07

NEDD4-like E3 ubiquitin-protein ligase WWP2 E451S, O00308
abundance fitness: -0.072 ± 0.032

NEDD4-like E3 ubiquitin-protein ligase WWP2 E451T, O00308
abundance fitness: -0.229 ± 0.045

NEDD4-like E3 ubiquitin-protein ligase WWP2 E451V, O00308
abundance fitness: -0.113 ± 0.031

NEDD4-like E3 ubiquitin-protein ligase WWP2 E451W, O00308
abundance fitness: -1.18 ± 0.18

NEDD4-like E3 ubiquitin-protein ligase WWP2 E451Y, O00308
abundance fitness: -0.378 ± 0.071

NEDD4-like E3 ubiquitin-protein ligase WWP2 E457A, O00308
abundance fitness: -0.081 ± 0.044

NEDD4-like E3 ubiquitin-protein ligase WWP2 E457C, O00308
abundance fitness: -0.155 ± 0.073

NEDD4-like E3 ubiquitin-protein ligase WWP2 E457D, O00308
abundance fitness: -0.068 ± 0.062

NEDD4-like E3 ubiquitin-protein ligase WWP2 E457F, O00308
abundance fitness: -0.253 ± 0.074

NEDD4-like E3 ubiquitin-protein ligase WWP2 E457G, O00308
abundance fitness: -0.116 ± 0.037

NEDD4-like E3 ubiquitin-protein ligase WWP2 E457H, O00308
abundance fitness: -0.089 ± 0.035

NEDD4-like E3 ubiquitin-protein ligase WWP2 E457I, O00308
abundance fitness: -0.285 ± 0.042

NEDD4-like E3 ubiquitin-protein ligase WWP2 E457K, O00308
abundance fitness: -0.118 ± 0.056

NEDD4-like E3 ubiquitin-protein ligase WWP2 E457L, O00308
abundance fitness: -0.204 ± 0.056

NEDD4-like E3 ubiquitin-protein ligase WWP2 E457M, O00308
abundance fitness: -0.349 ± 0.071

NEDD4-like E3 ubiquitin-protein ligase WWP2 E457N, O00308
abundance fitness: -0.189 ± 0.068

NEDD4-like E3 ubiquitin-protein ligase WWP2 E457P, O00308
abundance fitness: -0.5 ± 0.075

NEDD4-like E3 ubiquitin-protein ligase WWP2 E457Q, O00308
abundance fitness: -0.022 ± 0.056

NEDD4-like E3 ubiquitin-protein ligase WWP2 E457R, O00308
abundance fitness: -0.251 ± 0.061

NEDD4-like E3 ubiquitin-protein ligase WWP2 E457S, O00308
abundance fitness: -0.201 ± 0.061

NEDD4-like E3 ubiquitin-protein ligase WWP2 E457T, O00308
abundance fitness: -0.081 ± 0.067

NEDD4-like E3 ubiquitin-protein ligase WWP2 E457V, O00308
abundance fitness: -0.188 ± 0.031

NEDD4-like E3 ubiquitin-protein ligase WWP2 E457W, O00308
abundance fitness: -0.624 ± 0.096

NEDD4-like E3 ubiquitin-protein ligase WWP2 E457Y, O00308
abundance fitness: -0.216 ± 0.057

NEDD4-like E3 ubiquitin-protein ligase WWP2 E480A, O00308
abundance fitness: -0.08 ± 0.034

NEDD4-like E3 ubiquitin-protein ligase WWP2 E480C, O00308
abundance fitness: -0.611 ± 0.043

NEDD4-like E3 ubiquitin-protein ligase WWP2 E480D, O00308
abundance fitness: 0.015 ± 0.06

NEDD4-like E3 ubiquitin-protein ligase WWP2 E480F, O00308
abundance fitness: -0.239 ± 0.062

NEDD4-like E3 ubiquitin-protein ligase WWP2 E480G, O00308
abundance fitness: -0.038 ± 0.033

NEDD4-like E3 ubiquitin-protein ligase WWP2 E480H, O00308
abundance fitness: 0.027 ± 0.068

NEDD4-like E3 ubiquitin-protein ligase WWP2 E480I, O00308
abundance fitness: -0.042 ± 0.047

NEDD4-like E3 ubiquitin-protein ligase WWP2 E480K, O00308
abundance fitness: -0.019 ± 0.05

NEDD4-like E3 ubiquitin-protein ligase WWP2 E480L, O00308
abundance fitness: -0.072 ± 0.042

NEDD4-like E3 ubiquitin-protein ligase WWP2 E480M, O00308
abundance fitness: -0.058 ± 0.048

NEDD4-like E3 ubiquitin-protein ligase WWP2 E480N, O00308
abundance fitness: -0.126 ± 0.068

NEDD4-like E3 ubiquitin-protein ligase WWP2 E480P, O00308
abundance fitness: -0.141 ± 0.062

NEDD4-like E3 ubiquitin-protein ligase WWP2 E480Q, O00308
abundance fitness: -0.053 ± 0.04

NEDD4-like E3 ubiquitin-protein ligase WWP2 E480R, O00308
abundance fitness: -0.078 ± 0.038

NEDD4-like E3 ubiquitin-protein ligase WWP2 E480S, O00308
abundance fitness: -0.15 ± 0.053

NEDD4-like E3 ubiquitin-protein ligase WWP2 E480T, O00308
abundance fitness: -0.119 ± 0.062

NEDD4-like E3 ubiquitin-protein ligase WWP2 E480V, O00308
abundance fitness: -0.064 ± 0.035

NEDD4-like E3 ubiquitin-protein ligase WWP2 E480Y, O00308
abundance fitness: 0.036 ± 0.065

NEDD4-like E3 ubiquitin-protein ligase WWP2 F462A, O00308
abundance fitness: -1.02 ± 0.067

NEDD4-like E3 ubiquitin-protein ligase WWP2 F462C, O00308
abundance fitness: -0.88 ± 0.054

NEDD4-like E3 ubiquitin-protein ligase WWP2 F462D, O00308
abundance fitness: -0.675 ± 0.084

NEDD4-like E3 ubiquitin-protein ligase WWP2 F462G, O00308
abundance fitness: -0.8 ± 0.054

NEDD4-like E3 ubiquitin-protein ligase WWP2 F462I, O00308
abundance fitness: -1.03 ± 0.16

NEDD4-like E3 ubiquitin-protein ligase WWP2 F462K, O00308
abundance fitness: -0.789 ± 0.16

NEDD4-like E3 ubiquitin-protein ligase WWP2 F462L, O00308
abundance fitness: -0.9 ± 0.061

NEDD4-like E3 ubiquitin-protein ligase WWP2 F462M, O00308
abundance fitness: -0.66 ± 0.08

NEDD4-like E3 ubiquitin-protein ligase WWP2 F462N, O00308
abundance fitness: -0.945 ± 0.082
